Source: publication PMC3458557

T1: GST-Rho-N-Strep (RHON1 C-terminal Rho-N domain) (Arabidopsis thaliana, UniProt Q94K75 362-401)
T1 chain: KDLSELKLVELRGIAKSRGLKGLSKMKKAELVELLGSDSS

B1: petB 5' UTR (ssRNA)
RNA: GGUAGUUCGACCGCGAAAUUUUUUUCUGCAUUGUAUAUUUCCGGAAUAUGAGUGUGUGACUUGUUAGAAU
B2: petB 3' UTR (ssRNA)
RNA: GACUGAAGCUAACUUUGGUUGGUUAAUCCGAUCAGUUCAUCGAUGGUCGGCAAGUAUGAUGGUCCUAAUG
B3: 23S-4.5Sa dsRNA (dsRNA)
RNA 1: UUCCUCUAUUUGUUCGAUAGGGGAGAUUCCGACUUCCCCAGAGCCUCCGGUAGCACAGCCGAGACAGCAACGGGUUCUCCGCCCCUGCGGGGAUG
RNA 2: CAUCCCCGCAGGGGCGGAGAACCCGUUGCUGUCUCGGCUGUGCUACCGGAGGCUCUGGGGAAGUCGGAAUCUCCCCUAUCGAACAAAUAGAGGAA

Target: T1, GST-Rho-N-Strep (RHON1 C-terminal Rho-N …)
Assay: EMSA

Binder | binding result
B1 | binds
UUCUAGUACAACUAUUGCAGUAGAAUGACAA (ssRNA) [petA 5' UTR 31-mer] | no binding
B2 | binds
B3 | no binding
